Assay results: US20110045554A1 (University of California, published 2011)

How the values were obtained:
citrate synthase = experiment: cell-based or functional assay
[1] = target: the molecule itself; experiment: transmission electron microscopy; self-association into filaments

reduction of citrate synthase aggregation at 45° C. (citrate synthase): 2 :1 monomer-to-monomer stoichiometric ratio
stabilization of citrate synthase against aggregation at 45° C. (citrate synthase): 5 :1 monomer-to-monomer stoichiometric ratio
B1: Methanococcus jannaschii gamma-Prefoldin (γ-PFD) (other)
chain: MVNEVIDINEAVRAYIAQIEGLRAEIGRLDATIATLRQSLATLKSLKTLGEGKTVLVPVGSIAQVEMKVEKMDKVVVSVGQNISAELEYEEALKYIEDEIKKLLTFRLVLEQAIAELYAKIEDLIAEAQQTSEEEKAEEEENEEKAE
notes: Recombinant protein expressed in E. coli from the genomic M. jannaschii gene; It forms long filaments of identical subunits; also called γ prefoldin; Mj-γ-PFD
binding result [1]: binds
